Assay [1] deals with FcγRI-His (human) (UniProt P12314). Put plainly: ELISA, IgG coated, 60 nM FcγRI.
Assay [2] concerns the target FcγRIIb-GST (human) (UniProt P31994). The assay can be described thus: ELISA, IgG coated, 60 nM receptor.
For assay [3], the target named is FcγRIIIa-F158-GST (human) (UniProt P08637). Put plainly: ELISA, IgG coated, 200 nM receptor.
For assay [4], the target named is FcγRIIIa-V158-GST (human) (UniProt P08637). Put plainly: ELISA, IgG coated, 200 nM receptor.
Assay [5] has as its target FcγRIIa-H131-GST (human) (UniProt P12318). The assay can be described thus: ELISA, IgG coated, 200 nM receptor.
Assay [6] addresses FcγRIIa-R131-GST (human) (UniProt P12318). The assay can be described thus: ELISA, IgG coated, 200 nM receptor.
The target in assay [7] is FcγRI-His (human) (UniProt P12314). Put plainly: SPR, IgG on chip, 200 nM monomeric FcγRI.
Assay [8] addresses FcγRIIb-GST (human) (UniProt P31994). The assay can be described thus: SPR, IgG on chip, dimeric FcγRIIB, bivalent fit.
Assay [9] shares this target. The assay can be described thus: SPR, IgG on chip, dimeric FcγRIIB, bivalent fit, KD = KD1/(1 + 1/KD2).
The target in assay [10] is FcγRIIIa-V158-GST (human) (UniProt P08637). Put plainly: ELISA, STPK-Fc coated, receptor titrated.
Assay [11] addresses mFcγRII-His (mouse).
The target of assay [12] is mFcγRIII-His (mouse) (UniProt P08508).
Assay [13] concerns the target FcγRIIa-H131-GST (human) (UniProt P12318). The assay can be described thus: ELISA: antibody coated on the plate, receptor titrated in 5-fold steps, HRP-labelled secondary antibody, absorbance at 450 nm.
For assay [14], the target named is FcγRIIa-R131-GST (human) (UniProt P12318). The description is as above.
The target of assay [15] is FcγRIIb-GST (human) (UniProt P31994). Put plainly: FACS on spheroplasts, 400 nM FcγRIIB-GST.
Assay [16] addresses FcγRIIA (H131 and R131)-GST (human) (UniProt P12318). Put plainly: FACS on spheroplasts, 400 nM FcγRIIA-GST.
In assay [17] the target is FcγRIIb-GST (human) (UniProt P31994). The assay can be described thus: FACS on spheroplasts, 400 nM FcγRIIB-GST. The source holds these as a separate data set.
Assay [18] has the same target. The assay can be described thus: FACS on spheroplasts, 100 nM FcγRIIb-GST-PE.
Assay [19] has as its target mFcγRII-His (mouse). The assay can be described thus: FACS on spheroplasts, 100 nM b-mFcγRII, SA-PE.
Another assay has as its target mFcγRI-His (mouse) (UniProt P08101). Put plainly: FACS on spheroplasts, 1 µM mFcγRI, anti-His-PE.
The target in a further assay is mFcγRIV-His (mouse). Put plainly: FACS on spheroplasts, 1 µM mFcγRIV, anti-His-PE.
Assay [20] deals with mFcγRIII-His (mouse) (UniProt P08508). Put plainly: FACS on spheroplasts, 1 µM mFcγRIII, anti-His-PE.

The source of these data is patent US20170058030A1.

Some results are limits rather than exact numbers.

For “Rituximab (glycosylated, wild-type IgG1 Fc) (antibody)”, the absorbance at 450 nm came to 1.51 in the assay with FcγRI-His (human) [1]; 0.183 with FcγRIIb-GST (human) [2]; 0.203 in [3]; 0.848 in [4]; 2.35 in the assay with FcγRIIa-H131-GST (human) [5]; 1.44 with FcγRIIa-R131-GST (human) [6]. Further, the RUmax with FcγRI-His (human) [7] was determined as 260 RU. The same substance came in with a kD1 with FcγRIIb-GST (human) [8] of 8.69e-06. In the assay with FcγRIIb-GST (human) [8], this substance displayed a kD2 of 13.1. For the same substance, the Kd in the assay with FcγRIIb-GST (human) [9] was determined as 8.07 µM.
On to “STPK-mFc (from UniProt P00779 27-440) (Fc fusion)”, for which the IC50 in [10] was more than 0.3 µM. Further, the Kd with mFcγRII-His (mouse) [11] was determined as 16.1 µM; with mFcγRIII-His (mouse) [12], 14.9 µM.
For “glycosylated wild type IgG1 (control of Example 10) (antibody)”, the EC50 (read off the curve) was 0.04 µM with FcγRIIa-H131-GST (human) [13] and 0.01 µM with FcγRIIa-R131-GST (human) [14].
With “wild-type aglycosylated IgG1 displayed on E. coli spheroplasts (antibody)”, the MFI was determined as 11.1 in the assay with FcγRIIb-GST (human) [15], 40.9 in [16], 14 with FcγRIIb-GST (human) [17] and 23.5 in the assay with FcγRIIb-GST (human) [18].
As for “wild-type aglycosylated mIgG1 displayed on E. coli spheroplasts (antibody)”, the MFI with mFcγRII-His (mouse) [19] amounted to 61.8; with mFcγRI-His (mouse), 515; with mFcγRIV-His (mouse), 155; in the assay with mFcγRIII-His (mouse) [20] it was 143.
